{
  "source": "patent US20230192818A1",
  "binders": {"B1": {"name": "11-2 (antibody, V domains shown)", "VH": "QVQLVESGGGVVQPGRSLRLSCAASGFTFGTYAMHWVRQAPGKGLEWVAVVSTEGGTTYYADSVKGRFTISRDNSKNTLYLQMNSLRAEDTAVYYCAGSYGAYFDYWGQGTLVTVSS", "VL": "EIVLTQSPATLSLSPGERATLSCRASQSVNSYLAWYQQKPGQAPRLLIYDVSNRATGIPARFSGSGSGTDFTLTISSLEPEDFAVYYCQQFSNWPTFGGGTKVEIK"}, "B2": {"name": "11-9 (antibody, V domains shown)", "VH": "B1 VH", "VL": "EIVLTQSPATLSLSPGERATLSCRASQSVSYYLAWYQQKPGQAPRLLIYDSSNRATGIPARFSGSGSGTDFTLTISSLEPEDFAVYYCQQRSNWQGNFGGGTKVEIK"}, "B3": {"name": "12-6 (antibody, V domains shown)", "VH": "QVQLVESGGGVVQPGRSLRLSCAASGFIFRNYAMHWVRQAPGKGLEWVAVISYDGSNKYYADSVKGRFTISRDNSKNTLYLQMNSLRAEDTAVYYCARPRGGSYHGAFDIWGQGTLVTVSS", "VL": "B1 VL with V29L, N30G, S31N, V51S, F91R, S92N, N93W, W94P, P95Y"}, "B4": {"name": "11-20 (antibody, V domains shown)", "VH": "B3 VH with I28T, R30D, N31D, R98S, R100H, G101S, H105W, G106A", "VL": "EIVLTQSPATLSLSPGERATLSCRASQSVGSYLAWYQQKPGQAPRLLIYDAVNRATGIPARFSGSGSGTDFTLTISSLEPEDFAVYYCQQRSLWPFGGGTKVEIK"}, "B5": {"name": "12-1 (antibody, V domains shown)", "VH": "B3 VH with I28T, R30S, N31Y, A33G, I51T, R100Q, H105F, G106A", "VL": "B4 VL with G30S, Y32H, A51V, V52S, S92D, L93T, W94F, P95T"}, "B6": {"name": "11-3 (antibody, V domains shown)", "VH": "QVQLVESGGGVVQPGRSLRLSCAASGFTFSNFAMHWVRQAPGKGLEWVAVISYDGNHEYYADSVKGRFTISRDNSKNTLYLQMNSLRAEDTAVYYCAKTNSGSYGGMFDYWGQGTLVTVSS", "VL": "EIVLTQSPATLSLSPGERATLSCRASQNIGNHLAWYQQKPGQAPRLLIYDASNRATGIPARFSGSGSGTDFTLTISSLEPEDFAVYYCQQRDNGPPEGTFGGGTKVEIK"}, "B7": {"name": "12-9 (antibody, V domains shown)", "VH": "B6 VH with N31S, F32Y, A33G, N56T, H57T, K98R, T99P, N100S, G105L, M107F", "VL": "B2 VL with Y31T, Y32S, S51A, S52T, Q90R, S92T, N93D, Q95P, G96P, N97T"}, "B8": {"name": "12-7 (antibody, V domains shown)", "VH": "B3 VH with I28T, R30S, N31I, S56T, K58E, R98K, P99S, H105Y, I110Y", "VL": "B2 VL with V29L, S30G, Y31N, S92T, N93D, Q95P, G96P, N97S"}, "B9": {"name": "12-4 (antibody, V domains shown)", "VH": "B6 VH with N31Y, F32Y, A33G, N56T, H57N, E58D, T99P, N100H, G105R, M107Y", "VL": "B2 VL with S30G, Y31S, Y32H, S51A, R91I, Q95P, G96L, N97T"}, "B10": {"name": "12-17 (antibody, V domains shown)", "VH": "B6 VH with S30G, N31S, F32Y, A33G, K98R, T99P, N100H, G105T, G106A, M107Y", "VL": "B2 VL with Y31K, Y32F, S51A, Q89H, R91H, N93D, Q95P, G96L, N97T"}, "B11": {"name": "11-11 (antibody, V domains shown)", "VH": "QVQLVESGGGVVQPGRSLRLSCAASGFTFDNYAMHWVRQAPGKGLEWVAVISYDGSNKYYADSVKGRFTISRDNSKNTLYLQMNSLRAEDTAVYYCLREGILWDVWGQGTLVTVSS", "VL": "EIVLTQSPATLSLSPGERATLSCRASHNINNFLAWYQQKPGQAPRLLIYDTSNRATGIPARFSGSGSGTDFTLTISSLEPEDFAVYYCQQGRNWPPSSFGGGTKVEIK"}, "B12": {"name": "11-4 (antibody, V domains shown)", "VH": "QVQLVESGGGVVQPGRSLRLSCAASGFTFDNYAMHWVRQAPGKGLEWVAVISDDGRNKYYADSVKGRFTISRDNSKNTLYLQMNSLRAEDTAVYYCAKDNYYDSSGYYGGGMDVWGQGTLVTVSS", "VL": "B2 VL with S30G, Y31S, S51A, S52V, S92F, N93T, Q95P, G96T, N97T"}, "B13": {"name": "11-16 (antibody, V domains shown)", "VH": "QVQLVESGGGVVQPGRSLRLSCAASGFTFSDHYMHWVRQAPGKGLEWVAVISYDGSNEYYADSVKGRFTISRDNSKNTLYLQMNSLRAEDTAVYYCAKDLGPAGVDYWGQGTLVTVSS", "VL": "B2 VL with V29L, S30G, Y31R, R91Y, S92G, N93D, Q95P, G96E, N97T"}, "B14": {"name": "11-10 (antibody, V domains shown)", "VH": "QVQLVESGGGVVQPGRSLRLSCAASGFIFNNYGMHWVRQAPGKGLEWVAVISYDGSNIYYADSVKGRFTISRDNSKNTLYLQMNSLRAEDTAVYYCARDYNDGIGSYTGAFDSWGQGTLVTVSS", "VL": "B2 VL with Y31T, Y32S, S51A, S52T, R91H, S92Y, N93S, Q95P, G96L, N97T"}, "B15": {"name": "12-5 (antibody, V domains shown)", "VH": "QVQLVESGGGVVQPGRSLRLSCAASGFTFSYYGMHWVRQAPGKGLEWVAVTSYDGSNKYYSDSVKGRFTISRDNSKNTLYLQMNSLRAEDTAVYYCARPKSGSYATYFDYWGQGTLVTVSS", "VL": "B2 VL with S28N, S30G, Y31Q, Y32S, S51A, S92E, Q95P, G96P, N97T"}, "B16": {"name": "12-11 (antibody, V domains shown)", "VH": "QVQLVESGGGVVQPGRSLRLSCAASGFSFGGYGMHWVRQAPGKGLEWVAVISYDGSNEYYADSVKGRFTISRDNSKNTLYLQMNSLRAEDTAVYYCAKSYSGSYSSYFDYWGQGTLVTVSS", "VL": "B2 VL with S30G, Y31S, S51A, S52V, S92F, N93T, Q95P, G96T, N97T"}, "B17": {"name": "11-6 (antibody, V domains shown)", "VH": "QVQLVESGGGVVQPGRSLRLSCAASGFTFGTYAMHWVRQAPGKGLEWVAVVSTEGGTTYYADSVKGRFTISRDNSKNTLYLQMNSLRAEDTAVYYCAGEYYDSSGSSIDYWGQGTLVTVSS", "VL": "B2 VL with S30D, Y31S, Y32S, S51A, R91Q, Q95P, N97T"}, "B18": {"name": "12-2 (antibody, V domains shown)", "VH": "B3 VH with N31S, N57S, R100S, G101S, H105F, G106P, A107P, I110Y", "VL": "B2 VL with S30D, Y31S, Y32R, S51T, N93T, Q95P, G96P, N97V"}, "B19": {"name": "11-1 (antibody, V domains shown)", "VH": "QVQLVESGGGVVQPGRSLRLSCAASGFTFGSYGMHWVRQAPGKGLEWVAVISYDGGDEYYADSVKGRFTISRDNSKNTLYLQMNSLRAEDTAVYYCARDISRYGYYGMDVWGQGTLVTVSS", "VL": "EIVLTQSPATLSLSPGERATLSCRASQSLGSFLAWYQQKPGQAPRLLIYDASNRATGIPARFSGSGSGTDFTLTISSLEPEDFAVYYCQQRALWPRLTFGGGTKVEIK"}, "B20": {"name": "12-15 (antibody, V domains shown)", "VH": "B16 VH with E58K, K98R, S99P, S105I, Y107W", "VL": "B19 VL with L29V, G30S, F32H, A51V, Q90V, A92S, L93D, R96P"}, "B21": {"name": "12-13 (antibody, V domains shown)", "VH": "B16 VH with G30S, G31T, E58K, K98R, S99P, Y100L, S105W, Y107W, Y110P", "VL": "B19 VL with L29V, F32Y, S52V, A92N, L93S, R96P, L97A"}, "B22": {"name": "12-8 (antibody, V domains shown)", "VH": "B3 VH with I28T, R30N, A33V, S56T, K58D, P99G, R100E, G101S, H105W, I110Y", "VL": "B11 VL with H27Q, N30G, F32H, T51V, G91R, R92K, N93S, S97F, S98T"}, "B23": {"name": "12-16 (antibody, V domains shown)", "VH": "B3 VH with N31S, N57S, P99T, R100L, H105F, G106A", "VL": "B19 VL with G30D, F32Y, A51V, A92R, L93G, R96P, L97V"}, "B24": {"name": "11-18 (antibody, V domains shown)", "VH": "B16 VH with S28T, G31T, G33A, S56N, E58K, S99T, Y100G, S105Y, Y107W", "VL": "B19 VL with G30T, F32Y, A92H, L93Y, R96P, L97I"}, "B25": {"name": "12-10 (antibody, V domains shown)", "VH": "B3 VH with N31S, N57I, P99T, H105Y, I110Y", "VL": "B19 VL with L29V, G30N, F32D, A92T, L93D, R96P, L97A"}, "B26": {"name": "11-15 (antibody, V domains shown)", "VH": "QVQLVESGGGVVQPGRSLRLSCAASGFIFSNYGMHWVRQAPGKGLEWVAVISYDGSDKYYADSVKGRFTISRDNSKNTLYLQMNSLRAEDTAVYYCARDDYMYGFEHWGQGTLVTVSS", "VL": "EMVVPQSPPTVSLSPGERATLSCRASQSVGSYLAWYQQKPGQAPRLLIYDAVNRATGIPARFSGSGSGTDFTLTISSLEPEDFAVYYCQQRSDSITFGGGTKVEIK"}},
  "note": "Substitutions are numbered along the chain they refer to.",
  "data": [
    {"target": "biotinylated SARS-CoV-2 S1 variant B.1.351 (Example 5) (SARS-CoV-2) (UniProt P0DTC2)", "experiment": "phage ELISA screening", "values": [
      {"binder": "B1", "ELISA": 19.4},
      {"binder": "B2", "ELISA": 9.14},
      {"binder": "B3", "ELISA": 22.4},
      {"binder": "B4", "ELISA": 3.42},
      {"binder": "B5", "ELISA": 29.2},
      {"binder": "B6", "ELISA": 17.3},
      {"binder": "B7", "ELISA": 19.9},
      {"binder": "B8", "ELISA": 22.2},
      {"binder": "B9", "ELISA": 23.5},
      {"binder": "B10", "ELISA": 16.2},
      {"binder": "B11", "ELISA": 6.43},
      {"binder": "B12", "ELISA": 16.3},
      {"binder": "B13", "ELISA": 4.65},
      {"binder": "B14", "ELISA": 7.06},
      {"binder": "B15", "ELISA": 22.8},
      {"binder": "B16", "ELISA": 18.8},
      {"binder": "B17", "ELISA": 12.6},
      {"binder": "B18", "ELISA": 25.9},
      {"binder": "B19", "ELISA": 21.7},
      {"binder": "B20", "ELISA": 17.6},
      {"binder": "B21", "ELISA": 18.1},
      {"binder": "B22", "ELISA": 21.4},
      {"binder": "B23", "ELISA": 17},
      {"binder": "B24", "ELISA": 3.7},
      {"binder": "B25", "ELISA": 19.7},
      {"binder": "B26", "ELISA": 4.97}
    ]}
  ]
}
